Data reported in patent publication US8008452B2, “Phosphorylated Ndr kinase” (Novartis Forschungesstiftung, Zweigniederlassung Friedrich …, priority 2002, dated 2011).

Experiments:
GST-NDR1 = GST-NDR1 in vitro autophosphorylation, incorporated 32P by Cerenkov counting; assay type: biochemical, human
Protocol: BL21-DE3-pRep4 E. coli strain was transformed with the pGEX-2T_NDR1 wild type or mutant plasmids. BL21-DE3 is a protease-deficient E. coli strain and pRep4 is a Laclq repressor-bearing plasmid both available commercially. Optionally, if desired, an E. coli strain comprising GroESL can be used, which expresses a chaperone protein that stabilizes the kinase. Mid-logarithmic phase cells were induced with 0.5 mM isopropyl beta-D-thiogalactopyranoside (IPTG) for 4 hours at 30° C. Bacteria were lysed using a French press in the presence of 1 mg/ml lysosyme, and the fusion proteins were purified on glutathione-agarose (Amersham Pharmacia Biotech) as described by the manufacturers. Recombinant proteins were assayed for kinase activity as described below and autophosphorylation was determined after SDS-PAGE separation either by Cerenkov counting or by exposure to a PhosphorImager screen followed by analysis with ImageQuant software (Molecular Dynamics).
In brief, 1 microgram of purified GST-NDR1 (in solution ˜0.5 microM) wild type, kinase dead (K118A), and alanine mutants of phosphorylation residues Thr74, Ser281, and Thr444 were autophosphorylated for 2 hours in vitro without further additions or in the presence of 1 mM CaCl2 and 10 microM bovine S100B. Proteins were visualized on SDS gels using Coomassie Blue R-350 stained SDS-PAGE gel, and [gamma-^32P]ATP-labelled proteins were visualized by autoradiography of the gels developed on a Phosphorimager screen. The amount of incorporated ^32P was quantified by Cerenkov counting.

myc-hMOB1 = assay: Co-immunoprecipitation of HA-NDR and myc-hMOB1 from COS-1 cells; assay type: binding, human; conditions: COS-1 cells treated with OA prior to lysis
Protocol: HA-tagged hNDR and myc-tagged hMOB1 were cotransfected in COS1 cells, which were stimulated with okadaic acid or solvent alone. After cell lysis and extract preparation, HA-NDR was immunoprecipitated and co-immunoprecipitated myc-hMOB1 detected or Myc-hMOB1 was immunoprecipitated and co-immunoprecipitated HA-NDR detected.
HA-NDR, wt and mutants, and myc-hMOB1 were cotransfected into COS-1 cells and the cells were treated with OA prior to lysis. HA-NDR was immunoprecipitated and the coimmunoprecipitated myc-hMOB1 detected. […] Furthermore, the two important in vivo phosphorylation sites of NDR, serine-281 in the activation segment and the hydrophobic motif site threonine-444 in the C-terminal regulatory domain were tested, as well as the threonine 74 site in the N-terminal regulatory domain, for their role in NDR-MOB interaction.
HA-NDR N-terminal point mutants and myc-mob1 were co-transfected into COS1 cells which were treated with OA prior to lysis. HA-NDR mutants were immunoprecipitated and coimmunoprecipitated myc-hMOB1 detected.
In this Example, the effect of treatment of COS1 cells with BAPTA-AM on the NDR-MOB Interaction was determined. […] HA-NDR was immunoprecipitated and co-immunoprecipitated myc-MOB1 detected. The kinase activity of the HA-NDR immunoprecipitates was measured in a peptide kinase assay.

B1: S281A: NDR1 alanine mutant of phosphorylation residue Ser281; GST fusion or HA-tagged (protein)
chain: MAMTGSTPCSSMSNHTKERVTMTKVTLENFYSNLIAQHEEREMRQKKLEKVMEEEGLKDEEKRLRRSAHARKETEFLRLKRTRLGLEDFESLKVIGRGAFGEVRLVQKKDTGHVYAMKILRKADMLEKEQVGHIRAERDILVEADSLWVVKMFYSFQDKLNLYLIMEFLPGGDMMTLLMKKDTLTEEETQFYIAETVLAIDSIHQLGFIHRDIKPDNLLLDSKGHVKLSDFGLCTGLKKAHRTEFYRNLNHSLPSDFTFQNMNSKRKAETWKRNRRQLAFATVGTPDYIAPEVFMQTGYNKLCDWWSLGVIMYEMLIGYPPFCSETPQETYKKVMNWKETLTFPPEVPISEKAKDLILRFCCEWEHRIGAPGVEEIKSNSFFEGVDWEHIRERPAAISIEIKSIDDTSNFDEFPESDILKPTVATSNHPETDYKNKDWVFINYTYKRFEGLTARGAIPSYMKAAK
modifications: left off: small tags and cut ends
notes: NDR1 alanine mutant of phosphorylation residue Ser281; GST fusion or HA-tagged
amount of incorporated 32P (autophosphorylation), −S100B (GST-NDR1; GST-NDR1 variant, 1 microgram, autophosphorylated 2 hours without further additions, pmol ATP/pmol GST-NDR1): 0.0192
amount of incorporated 32P (autophosphorylation), +S100B (GST-NDR1; GST-NDR1 variant, 2 hours in the presence of 1 mM CaCl2 and 10 microM bovine S100B, in pmol ATP/pmol GST-NDR1): 0.028
autophosphorylation rate of GST-NDR1 mutant (in words) (GST-NDR1; compared with wild type): dramatically reduced autophosphorylation rate
interaction of HA-NDR variant with myc-hMOB1 (myc-hMOB1): still interact with MOB1
